{"source": "paper PMC3543441", "key": {"[1]": {"target": "C-terminal truncated Entamoeba histolytica ornithine decarboxylase (EhODCΔ15) (Entamoeba histolytica)", "assay": "SEC; HiLoad 16/60 Superdex 200, purified protein at 5 mg/ml injected, 0.5 ml/min; elution compared with Gel Filtration HMW Calibration kit markers; eluted at 74 ml"}, "[2]": {"target": "C-terminal truncated Entamoeba histolytica ornithine decarboxylase (EhODCΔ15) (Entamoeba histolytica)", "assay": "crystal structure; sitting drop, 20% PEG 3350, 0.2 M LiCl, pH 6.8, 20°C; P212121, four molecules per asymmetric unit; molecular replacement with human ODC (PDB 2ON3); apo-enzyme"}}, "data": [{"substance": "C-terminal truncated Entamoeba histolytica ornithine decarboxylase (EhODCΔ15) (enzyme)", "values": [{"measurement": "stoichiometry N", "setting": "[1]", "value": 2}, {"measurement": "stoichiometry N", "setting": "[2]", "value": 4}]}]}
